# Experimental data from article doi:10.1101/2023.12.07.570558 (bioRxiv, 2023).
# Numbering of substitutions follows the chain as printed.
# T1: His-tagged SIRT1 (bacterially expressed) (human, UniProt Q96EB6)
# T1 sequence: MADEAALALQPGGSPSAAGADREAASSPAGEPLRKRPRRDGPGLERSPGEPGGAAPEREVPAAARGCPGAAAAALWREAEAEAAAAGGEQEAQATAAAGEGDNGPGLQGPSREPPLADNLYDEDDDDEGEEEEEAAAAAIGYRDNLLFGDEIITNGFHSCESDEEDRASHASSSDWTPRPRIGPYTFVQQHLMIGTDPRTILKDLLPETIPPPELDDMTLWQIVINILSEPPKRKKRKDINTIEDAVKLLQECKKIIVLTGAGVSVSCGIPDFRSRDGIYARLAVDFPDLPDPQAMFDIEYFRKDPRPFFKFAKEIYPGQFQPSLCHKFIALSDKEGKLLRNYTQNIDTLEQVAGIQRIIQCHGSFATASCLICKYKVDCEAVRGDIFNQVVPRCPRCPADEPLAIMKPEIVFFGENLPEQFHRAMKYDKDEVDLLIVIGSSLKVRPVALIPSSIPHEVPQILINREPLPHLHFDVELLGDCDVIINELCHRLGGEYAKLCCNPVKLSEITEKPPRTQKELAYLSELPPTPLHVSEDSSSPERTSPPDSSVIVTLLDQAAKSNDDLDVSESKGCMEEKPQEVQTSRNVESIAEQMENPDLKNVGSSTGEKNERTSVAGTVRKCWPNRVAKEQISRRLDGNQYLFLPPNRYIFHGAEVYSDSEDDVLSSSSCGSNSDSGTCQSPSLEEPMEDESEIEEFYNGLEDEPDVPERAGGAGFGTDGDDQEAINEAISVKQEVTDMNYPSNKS
# B1: His-tagged TULP3 (bacterially expressed) (natural protein)
# chain: MEASRCRLSPSGDSVFHEEMMKMRQAKLDYQRLLLEKRQRKKRLEPFMVQPNPEARLRRAKPRASDEQTPLVNCHTPHSNVILHGIDGPAAVLKPDEVHAPSVSSSVVEEDAENTVDTASKPGLQERLQKHDISESVNFDEETDGISQSACLERPNSASSQNSTDTGTSGSATAAQPADNLLGDIDDLEDFVYSPAPQGVTVRCRIIRDKRGMDRGLFPTYYMYLEKEENQKIFLLAARKRKKSKTANYLISIDPVDLSREGESYVGKLRSNLMGTKFTVYDRGICPMKGRGLVGAAHTRQELAAISYETNVLGFKGPRKMSVIIPGMTLNHKQIPYQPQNNHDSLLSRWQNRTMENLVELHNKAPVWNSDTQSYVLNFRGRVTQASVKNFQIVHKNDPDYIVMQFGRVADDVFTLDYNYPLCAVQAFGIGLSSFDSKLACE
# B2: His-tagged TULP3-4G (natural protein)
# chain: B1 chain with Y193G, P195G, K333G, P336G
# Molecular target: T1, His-tagged SIRT1 (bacterially expressed)
# Experiment: SEC
row,Binder,binding result
1,B1,binds
2,B2,binds
